B3: Nqo14 (natural protein, Thermus thermophilus, UniProt Q56229 1-427, looked up)
chain: MTLAILAVFSVALTLLGFVLPPQGVKRATLLGLALALASLLLTWGKPFAFGPYAVDGVSQVFTLLALLGALWTVGLVRSGRFEFYLLVLYAALGMHLLASTRHLLLMLVALEALSLPLYALATWRRGQGLEAALKYFLLGALAAAFFLYGAALFYGATGSLVLGAPGEGPLYALALGLLLVGLGFKAALAPFHFWTPDVYQGSPTPVVLFMATSVKAAAFAALLRVAAPPEALALLVALSVVVGNLAALAQKEAKRLLAYSSIAHAGYMALALYTGNAQALGFYLLTYVLATGLAFAVLSQISPDRVPLEALRGLYRKDPLLGLAFLVAMLSLLGLPPLAGFWGKYLAFAEAARAGAWGVLVLALVTSAVSAYYYLGLGLAVFARPEETPFRPGPPWARAAVVAAGVLLLALGLLPGLVLPALAAGG

Key:
Assay in all cases: crystal structure
Nqo12 = target: T1, Nqo12 (Thermus thermophilus, UniProt Q56227 1-606)
T1 sequence (looked up): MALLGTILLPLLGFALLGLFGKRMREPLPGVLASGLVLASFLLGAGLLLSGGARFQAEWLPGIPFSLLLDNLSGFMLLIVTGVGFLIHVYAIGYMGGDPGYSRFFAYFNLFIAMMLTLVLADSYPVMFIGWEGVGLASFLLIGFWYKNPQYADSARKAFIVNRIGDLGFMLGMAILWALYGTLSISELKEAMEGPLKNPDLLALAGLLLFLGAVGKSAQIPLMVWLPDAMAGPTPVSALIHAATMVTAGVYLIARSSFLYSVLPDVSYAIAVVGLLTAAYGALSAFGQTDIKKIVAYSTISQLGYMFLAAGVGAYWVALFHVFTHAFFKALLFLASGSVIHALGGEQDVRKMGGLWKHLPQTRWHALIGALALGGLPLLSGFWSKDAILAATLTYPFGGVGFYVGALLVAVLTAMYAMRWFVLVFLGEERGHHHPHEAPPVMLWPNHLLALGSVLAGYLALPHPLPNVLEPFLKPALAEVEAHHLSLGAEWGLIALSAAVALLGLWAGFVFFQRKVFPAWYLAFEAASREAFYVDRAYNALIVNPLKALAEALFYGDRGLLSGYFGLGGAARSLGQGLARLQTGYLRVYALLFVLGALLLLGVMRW

Nqo10 = target: T2, Nqo10 (Thermus thermophilus, UniProt Q56225 1-176)
T2 sequence (looked up): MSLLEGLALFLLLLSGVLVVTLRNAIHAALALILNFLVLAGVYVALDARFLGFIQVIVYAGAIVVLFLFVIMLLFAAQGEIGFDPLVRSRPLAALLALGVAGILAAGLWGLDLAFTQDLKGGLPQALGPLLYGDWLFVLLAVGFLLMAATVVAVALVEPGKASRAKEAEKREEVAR

Nqo14 = target: B3
Nqo8 = target: T3, Nqo8 (Thermus thermophilus, UniProt Q60019 1-365)
T3 sequence (looked up): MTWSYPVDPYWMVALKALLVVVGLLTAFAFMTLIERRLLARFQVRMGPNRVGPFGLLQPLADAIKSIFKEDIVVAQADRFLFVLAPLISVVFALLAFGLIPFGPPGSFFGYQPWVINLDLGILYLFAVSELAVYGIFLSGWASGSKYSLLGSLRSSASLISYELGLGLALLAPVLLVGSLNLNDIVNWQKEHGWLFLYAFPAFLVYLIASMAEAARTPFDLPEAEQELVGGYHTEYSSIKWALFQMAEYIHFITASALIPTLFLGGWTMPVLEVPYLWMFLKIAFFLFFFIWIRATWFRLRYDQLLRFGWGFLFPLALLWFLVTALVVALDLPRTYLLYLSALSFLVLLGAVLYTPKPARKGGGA

B1: Nqo13 (natural protein, Thermus thermophilus, UniProt Q56228 1-469, looked up)
chain: MVVLAVLLPVVFGALLLLGLPRALGVLGAGLSFLLNLYLFLTHPGGVAHAFQAPLLPGAGVYWAFGLDGLSALFFLTIALTVFLGALVARVEGRFLGLALLMEGLLLGLFAARDLLVFYVFFEAALIPALLMLYLYGGEGRTRALYTFVLFTLVGSLPMLAAVLGARLLSGSPTFLLEDLLAHPLQEEAAFWVFLGFALAFAIKTPLFPLHAWLPPFHQENHPSGLADALGTLYKVGVFAFFRFAIPLAPEGFAQAQGLLLFLAALSALYGAWVAFAAKDFKTLLAYAGLSHMGVAALGVFSGTPEGAMGGLYLLAASGVYTGGLFLLAGRLYERTGTLEIGRYRGLAQSAPGLAALALILFLAMVGLPGLSGFPGEFLTLLGAYKASPWLAALAFLSVIASAAYALTAFQKTFWEEGGSGVKDLAGAEWGFALLSVLALLLMGVFPGYFARGLHPLAEAFAKLLGGGA
Nqo12
  binding result: binds

B2: Nqo11 (natural protein, Thermus thermophilus, UniProt Q56226 1-95, looked up)
chain: MSYLLTSALLFALGVYGVLTRRTAILVFLSIELMLNAANLSLVGFARAYGLDGQVAALMVIAVAAAEVAVGLGLIVAIFRHRESTAVDDLSELRG
Nqo10
  binding result: binds
Nqo14
  binding result: binds

## B3
Nqo12
  binding result: binds

B4: Nqo7 (natural protein, Thermus thermophilus, UniProt Q56217 1-119, looked up)
chain: MAPIQEYVGTLIYVGVALFIGVAALLVGALLGPKKPGRAKLMPYESGNDPAGEVKRFPVHFYVVAMLFILFDVEVAFLWPYAVSAGGLGLYGFLGVLAFTLLLFVGFLYEWWKGVMRWH
Nqo8
  binding result: binds
